For 38 sequences, protein stability index results are on record in the supplement of paper PMC9732359.

± gives the uncertainty stated by the source.

The series in a line: protein stability index of a GFP-peptide fusion (yeast GPS) (PSI 1-4); higher = more stable; sorted into four equal gates, so the index is relative within each strain. A digest of the protocol: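 For each peptide, the protein stability index sums the read frequency in every gate after multiplying it by the gate number. Read frequencies came from plasmids that were PCR-amplified from each gate and Illumina-sequenced, with reads assigned to strains by barcodes. The gates were four equal bins of GFP/Cherry fluorescence ratio applied to mid-log yeast in leucine-free medium carrying a pooled library of tiled 17-residue yeast protein peptides fused downstream of GFP on a Cherry-expressing plasmid.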

For MVLFNIYDDWLDRISSY [PRP8], the protein stability index (doa10∆) is 2.26 ± 0.054, the protein stability index (pdr5∆) amounted to 2.47 ± 0.046, the protein stability index (san1∆) is 2.19 ± 0.075 and the protein stability index (ubr1∆) came to 2.26 ± 0.045.

FIRYDVKTPKKTKYILQ [CSN12]: the protein stability index by setting is: (doa10∆) 2.34 ± 0.048; (pdr5∆) 2.29 ± 0.048; (san1∆) 1.78 ± 0.057; (ubr1∆) 2.35 ± 0.051.

Consider SPNFKNYLKYLEYWCNP [SOH1], for which the protein stability index by setting is: (doa10∆) 2.32 ± 0.055; (pdr5∆) 2.34 ± 0.056; (san1∆) 1.88 ± 0.053; (ubr1∆) 2.71 ± 0.06.

Regarding LVTIEGALIHKAGLMTG [SMC1], the protein stability index was 2.99 ± 0.14 (doa10∆), 2.71 ± 0.12 (pdr5∆), 2.92 ± 0.13 (san1∆) and 2.95 ± 0.12 (ubr1∆).

DNEGVASKSKKKFNMGK [RPC53]: the protein stability index runs as follows: (doa10∆) 3.33 ± 0.091; (pdr5∆) 3.12 ± 0.13; (san1∆) 3.15 ± 0.08; (ubr1∆) 3.42 ± 0.08.

For NFRILKSFTNDKIPLNY [SRB5], the protein stability index (doa10∆) was determined as 2.94 ± 0.054, the protein stability index (pdr5∆) turned out to be 2.77 ± 0.057, the protein stability index (san1∆) is 2.84 ± 0.04 and the protein stability index (ubr1∆) turned out to be 2.91 ± 0.036.

Regarding TGQNFLTSNISSLVRSC [REC8], the protein stability index (doa10∆) was 3.21 ± 0.12, the protein stability index (pdr5∆) was 2.78 ± 0.08, the protein stability index (san1∆) was determined as 2.54 ± 0.099 and the protein stability index (ubr1∆) came out at 2.96 ± 0.091.

With GYDKSGAHLLEFQPSGN [PRE5], the protein stability index is, setting by setting: (doa10∆) 2.68 ± 0.25; (pdr5∆) 3.22 ± 0.18; (san1∆) 2.79 ± 0.21.

Take SKRWAQRTLSKSFYSTA [CYT1]: the protein stability index reads like this: (doa10∆) 1.69 ± 0.052; (pdr5∆) 2.32 ± 0.054; (san1∆) 2.19 ± 0.063; (ubr1∆) 2.22 ± 0.06.

The sequence VNRLLSVIPLKGRYAPE [RRP4] registered a protein stability index (doa10∆) of 1.85 ± 0.17, a protein stability index (pdr5∆) of 1.68 ± 0.087, a protein stability index (san1∆) of 2.33 ± 0.15 and a protein stability index (ubr1∆) of 1.86 ± 0.055.

Consider LNATKISPSAPSKDSFT [YAR002W/NUP60], for which the protein stability index was 2.8 ± 0.068 (doa10∆), 3 ± 0.068 (pdr5∆), 2.94 ± 0.052 (san1∆) and 3 ± 0.043 (ubr1∆).

With YSDIGGLESQIQEIKES [RPT2], the protein stability index came out at 1.8 ± 0.095 (doa10∆), 1.97 ± 0.08 (pdr5∆), 1.88 ± 0.096 (san1∆) and 2.52 ± 0.091 (ubr1∆).

In the case of PTLVRSVISGNLSLYEA [CSN12], the protein stability index is, setting by setting: (doa10∆) 2.92 ± 0.085; (pdr5∆) 3.05 ± 0.092; (san1∆) 3.06 ± 0.068; (ubr1∆) 2.91 ± 0.054.

Consider KKRREYFPEGYNNKVGV [SIR2], for which the protein stability index (doa10∆) was found to be 2.42 ± 0.13, the protein stability index (pdr5∆) came to 3.56 ± 0.19, the protein stability index (san1∆) is 2.54 ± 0.2 and the protein stability index (ubr1∆) amounted to 2.69 ± 0.047.

Regarding TLLNFVSNNVLRRLEIL [ECM29], the protein stability index is, setting by setting: (doa10∆) 1.63 ± 0.1; (pdr5∆) 1.92 ± 0.29; (san1∆) 2.28 ± 0.19; (ubr1∆) 2.48 ± 0.12.

Turning to VSGDLNPIHVSRHFASY [FAS1], the protein stability index is, setting by setting: (doa10∆) 2.51 ± 0.12; (pdr5∆) 2.88 ± 0.068; (san1∆) 2.78 ± 0.079; (ubr1∆) 2.81 ± 0.062.

Consider YVLYAKIVVLSRTGPVF [RRP43], for which the protein stability index reads like this: (doa10∆) 1.29 ± 0.097; (pdr5∆) 1.15 ± 0.077; (san1∆) 1.11 ± 0.16; (ubr1∆) 1.19 ± 0.06.

For the sequence IPTTKNLRLLVEENRVR [DLS1], the protein stability index amounted to 3.08 ± 0.1 (pdr5∆), 2.87 ± 0.097 (san1∆) and 2.12 ± 0.061 (ubr1∆).

For VMTVPGIDPTRIYTNSF [RPO21], the protein stability index came to 2.44 ± 0.072 (doa10∆), 2.11 ± 0.067 (pdr5∆), 2.59 ± 0.08 (san1∆) and 2.1 ± 0.056 (ubr1∆).

In the case of QNSSKIVNVLSKCLNLI [SWI3], the protein stability index by setting is: (doa10∆) 2.21 ± 0.057; (pdr5∆) 1.98 ± 0.048; (san1∆) 1.96 ± 0.093; (ubr1∆) 1.31 ± 0.044.

NNNHKDKKLLRRLLNLY [SWI1] returned a protein stability index (doa10∆) of 2.88 ± 0.054, a protein stability index (pdr5∆) of 2.93 ± 0.054, a protein stability index (san1∆) of 2.92 ± 0.058 and a protein stability index (ubr1∆) of 3.03 ± 0.054.

Sequence GFKTPKTAIEGSYIDKK [RPS11A] displayed a protein stability index (doa10∆) of 2.98 ± 0.043, a protein stability index (pdr5∆) of 3.21 ± 0.052, a protein stability index (san1∆) of 3.12 ± 0.032 and a protein stability index (ubr1∆) of 3.201 ± 0.031.

Take STTTSLHVPNLQPPKTS [SMC4]: the protein stability index reads like this: (doa10∆) 2.13 ± 0.036; (pdr5∆) 2.33 ± 0.033; (san1∆) 2.1 ± 0.046; (ubr1∆) 1.93 ± 0.027.

For the sequence LTGEWSTKFDYPPMPFD [FAS1], the protein stability index came out at 2.85 ± 0.056 (doa10∆), 2.96 ± 0.062 (pdr5∆), 2.85 ± 0.048 (san1∆) and 2.94 ± 0.037 (ubr1∆).

In the case of TELTHHLLPRNEWIKAQ [QCR7], the protein stability index runs as follows: (doa10∆) 2.37 ± 0.068; (pdr5∆) 2.16 ± 0.073; (san1∆) 2.04 ± 0.12; (ubr1∆) 1.85 ± 0.046.

Regarding RCNDNLMRSCFYLMVSS [YJL039C/NUP192], the protein stability index reads like this: (doa10∆) 1.46 ± 0.043; (pdr5∆) 1.72 ± 0.054; (san1∆) 2.31 ± 0.057; (ubr1∆) 1.1 ± 0.038.

As for NVSDEQLSNWQKIRNSE [ITC1], the protein stability index came out at 3.15 ± 0.071 (doa10∆), 3.2 ± 0.095 (pdr5∆), 2.94 ± 0.1 (san1∆) and 2.98 ± 0.087 (ubr1∆).

Consider MEDEILSLGMDFIKFDQ [BRN1], for which the protein stability index by setting is: (doa10∆) 3.23 ± 0.061; (pdr5∆) 3.35 ± 0.052; (san1∆) 3.27 ± 0.041; (ubr1∆) 3.15 ± 0.043.

For the sequence ILRMGAFRTIESKSDDN [RRI1], the protein stability index reads like this: (doa10∆) 2.88 ± 0.094; (pdr5∆) 2.8 ± 0.11; (san1∆) 2.92 ± 0.066; (ubr1∆) 2.56 ± 0.065.

With YSRILKSMGRKCFDDIE [YCG1], the protein stability index runs as follows: (doa10∆) 3.16 ± 0.17; (pdr5∆) 2.35 ± 0.12; (san1∆) 2.92 ± 0.21; (ubr1∆) 2.16 ± 0.13.

As to VPRTADRSASRAVFLFR [RPC82], the protein stability index (pdr5∆) turned out to be 3.53 ± 0.2 and the protein stability index (ubr1∆) is 3.04 ± 0.17.

Regarding RTPDSISVNSSSFSLTF [POP1], the protein stability index is, setting by setting: (doa10∆) 2.56 ± 0.045; (pdr5∆) 2.62 ± 0.042; (san1∆) 2.44 ± 0.045; (ubr1∆) 2.37 ± 0.038.

In the case of FKSTMLQVSEKDLFELE [ARP7], the protein stability index by setting is: (doa10∆) 1.25 ± 0.089; (pdr5∆) 2.49 ± 0.11; (san1∆) 1.1 ± 0.16; (ubr1∆) 1.4 ± 0.098.

As for RADTMDFKTDVDEPMTS [YJL039C/NUP192], the protein stability index amounted to 3.26 ± 0.087 (doa10∆), 3.28 ± 0.089 (pdr5∆), 3.25 ± 0.11 (san1∆) and 3.3 ± 0.066 (ubr1∆).

Take KYVHVSEVGNCSGSGMG [FAS2]: the protein stability index is 2.88 ± 0.055 (doa10∆), 3.08 ± 0.058 (pdr5∆), 2.92 ± 0.051 (san1∆) and 2.92 ± 0.041 (ubr1∆).

As to RNSKTVREFLEKNYDRK [PRE6], for the setting “doa10∆”, the protein stability index worked out at 3.08 ± 0.27.

As to KHSVTEYIFEAHEIIKR [CDC53], the protein stability index turned out to be 2.32 ± 0.067 (doa10∆), 1.87 ± 0.049 (pdr5∆), 2.68 ± 0.075 (san1∆) and 2.58 ± 0.051 (ubr1∆).

With GGGRVDKPLLKAGRAFH [RPL2A], the protein stability index worked out at 3.12 ± 0.048 (doa10∆), 3.11 ± 0.043 (pdr5∆), 2.95 ± 0.049 (san1∆) and 2.99 ± 0.03 (ubr1∆).
